Laboratory results published in the nanobody polyreactivity screen of Harvey et al. (2022).

Experiment: yeast display, Sf9 membrane polyspecificity reagent, FACS + sequencing; frameworks hold sequencing errors
Summary of the method: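 Synthetic nanobody libraries on Saccharomyces cerevisiae BJ5465 were galactose-induced for 36–48 hours, stained 1 hour at 4 °C with 10% biotinylated, detergent-solubilized Sf9 membrane reagent and enriched on streptavidin microbeads. FACS then separated cells into low and high (top ~1%) gates by anti-HA (expression) and streptavidin (reagent binding) fluorescence. Genes were colony-PCR amplified, MiSeq 2 × 250 sequenced and CDR-length filtered. A clone's polyreactivity label is that of its gate of origin.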

Row | Sequence | polyreactivity (PSR sort gate)
1 | QVQLVESGGGLVQAGGSLRLSCAASGRIFQYYAMGWYRQAPGKERELVAAITRSGGRTYYADSVKGRFTISRDNAKNTVYLQMYSLKPEDTAVYYCAASQRYSVIYYGFSEYDYWGQGTQVTVSS | high polyreactivity
2 | QVQLVESGGGLVQAGGSLRLSCAASGRIFQYYVMGWYRQAPGKERELVAAITSGGGTKYADSVKGRFTISRDNAKNTVYLQMIRLKPEDTAVYYCAAAWFDQYSRYDYWGQCTQVTVSS | low polyreactivity
3 | QVQLVESGGGLVQAGGSLRLSCAASGRIFRANAMGWYRQAPGKEGELVAAISRSAGSTYYADSVKGRFTISRDKAKNTVYLQMNSLKPEDTAVYYCAAVVRNPGTYDYWGQGTQVTVSS | high polyreactivity
4 | QVQLVESGGGLVQAGGSLRLSCAASGRIFRAYAMGWYRQAPGKERELVASISRSGGSTYYADSVKGRFTISRDNSKNTVYLQMYSLKPEDTAVYYCAAVQPVGLYPRTKYYYCGQGTQVTVSS | high polyreactivity
5 | QVQLVESGGGLVQAGGSLRLSCAASGRIFRAYVMGWYRQAPGKEREYVAAITRSGGSTYYADSVKGRFTISRDNAKNTVYLQMNSLKPEDTAVYYCAAPVYLYGTVGRGDYWGQGTQVTVSS | high polyreactivity
6 | QVQLVESGGGLVQAGGSLRLSCAASGRIFRDYGMGWYRQAPGKERELVAAINTSGRTYYADSVKGRFTISRDNAKNTVYLQMNSLKPEDTAVYYCATTSRELGELRIFDYWGQGSQVTVSS | low polyreactivity
7 | QVQLVESGGGLVQAGGSLRLSCAASGRIFRFYAMGWSSQAPGKERELVAAISTSGRTNYADSVKGRFTISRDNAKNTVYLQMNSLKPEDTAVYYCAAGTVLQGWSGAYGYWGQGTQVTVSS | high polyreactivity
8 | QVQLVESGGGLVQAGGSLRLSCAASGRIFRFYAMGWYRHPPGKERELVAAIRRGGSTTYADSVKGRFTISRDNAKNTVYLQMNSLKPEDTAVYYCAATQYYRGYDYWGQGTQVTVSS | high polyreactivity
9 | QVQLVESGGGLVQAGGSLRLSCAASGRIFRFYAMGWYRPAPGKERELVAAISSRGGSTYYADSVKGRFTISRDNAKNTDYFQMNSLKPEDTAVYYCNAYGSTSQMDYWGQGTQVTVSS | high polyreactivity
10 | QVQLVESGGGLVQAGGSLRLSCAASGRIFRFYAMGWYRQAPGKERELVAAINSRGGSTYYADSVKGRFTISRDNAKNTVYLQMNSLKPEDTAFYYCNARSGFGYGYGYWGQGTQVTVSS | high polyreactivity
11 | QVQLVESGGGLVQAGGSLRLSCAASGRIFRFYAMGWYRQAPRKERELVATIRRGDSTSYADSVKGRFTISRDNAKNTVYLQMNSLKPEDTAVYYCAAVWPSHVGTTYFWHKYGYWGQGTQVTVSS | high polyreactivity
12 | QVQLVESGGGLVQAGGSLRLSCAASGRIFRGYAMGWSRQAPGKERELVAVISYSGTRTYYADSVKGRFTISRDNAKNTVYLQMNSLKPEDTAVYYCNARANGFKDGYWGQGTQVTVSS | high polyreactivity
13 | QVQLVESGGGLVQAGGSLRLSCAASGRIFRGYAMGWYRQAPGKEREFVAAITKNGGSTYYADSVKGRFTISRDNAKNTVYLQMHSLKPEDTAVYYCAVRAWDPYTGKSDYWGQGTQVTVSS | low polyreactivity
14 | QVQLVESGGGLVQAGGSLRLSCAASGRIFRGYAMGWYRQAPGKERELVAAINGGDSTYADSVKGRFTISRDNAKNTVFLQMNSLIPEDTAVYYCAAAHYFLGPQGASFYYWGQGTQVTVSS | low polyreactivity
15 | QVQLVESGGGLVQAGGSLRLSCAASGRIFRGYAMGWYRQAPGKERELVAAISGRGGRTNYADSVKGRFTISRDNAKNTVYLQMNSLKPEDTAVYYCATVPYTASRYEYWGQGTQVTVSS | high polyreactivity
16 | QVQLVESGGGLVQAGGSLRLSCAASGRIFRGYAMGWYRQAPGKERELVAAISRRGGSTSYADSVKGRFTISRDNAKNTVYLQMNSLKPEDTAVYYCAVDYSKNGDDYWGQGTQVTVSS | high polyreactivity
17 | QVQLVESGGGLVQAGGSLRLSCAASGRIFRGYGMGWYSQAPGKERVLVAAITSRGGSTYYADSVKGRFTSSRDNAKNTVYLQMNSLKPQDTAVYYCYAVAFYYVGSKTYTRGLDYWGQGTQVTVSS | high polyreactivity
18 | QVQLVESGGGLVQAGGSLRLSCAASGRIFRGYVMGWYRQAPGKERELVAAISSSGGSTYYADSVKGRFTISRDNAKNTVYLQMNSLKPEDTAVYYCAAAKWFFYGRKYGKYDYWGQGTQVTVSS | high polyreactivity
19 | QVQLVESGGGLVQAGGSLRLSCAASGRIFRGYVMGWYRQAPGKERELVARITKSGGRTYYADSVKGRFTISRDNAKNTVYLQMNSLKPEDTAVYYCNTAWTGYPRYQYGGNYWGQGTQVTVSS | high polyreactivity
20 | QVQLVESGGGLVQAGGSLRLSCAASGRIFRHNAMGWYRQAPGKERELVAAISGGGTTYYADSVKGRFTISRDNAKNTVYLQMNSVKPEDTAVYYCAARRRGSVGVGYAYPYNYWGQGTQVTVSS | high polyreactivity
21 | QVQLVESGGGLVQAGGSLRLSCAASGRIFRHYAMGWYRQAPGKERELFAAIDWDGDTTYYADSVKGRFTISRDNAKNTVYLQMNSLKPEDNAVSYCAAEFYSLGKAIYEYWGQGTQVTVSS | high polyreactivity
22 | QVQLVESGGGLVQAGGSLRLSCAASGRIFRHYAMGWYRQAPWKERELVATITSGGRTNYADSVKGRFTISRDNAKNTVYLQMNSLKPEDTAVYYGAVDTWGSSWYDLFRETSDYWGQGTQVTVSS | low polyreactivity

Row | Sequence | polyreactivity (PSR sort gate)
23 | QVQLVESGGGLVQAGGSLRLSCAASGRIFRINAMGWYRQAPGKERELVASISRRGGNTYYADSVKGRFTISRDNAKNTVYLQMNSLKPEDTAVYYCAADTYQERTFDYWGQGTQVTVSS | low polyreactivity
24 | QVQLVESGGGLVQAGGSLRLSCAASGRIFRIYTMGWYREAPGKERELVAAISKSGGGTYYADSVKGRFTISRDNAKNTVYLQMNSLKPEDTAVYYCAAVSPNTAYDYWGQGTQVTVSS | high polyreactivity
25 | QVQLVESGGGLVQAGGSLRLSCAASGRIFRLYAMGWYRQAPGKERELVAAIRSATRTTYADSVKGRFTISRDNAKNTVYLQMNSLKPEDTAFYYCAARLWRYSDVSKYYSWGQGTQVTVSS | high polyreactivity
26 | QVQLVESGGGLVQAGGSLRLSCAASGRIFRLYTMGWYRQAPGKERELVAAISSAGSTKYADSVKGRFTISRDNAKNTVYLQMNSLKPEDTAVYYCAAGRYYYRSGFYTPVRYYSWGQGTQVTVSS | high polyreactivity
27 | QVQLVESGGGLVQAGGSLRLSCAASGRIFRNYAMGWYRQAPGKERELVAAISVSGGRTYYADSVKGRFTISRDNAKNTVYLQMNSLKPEDTAVYYCAARTGRQGYSRGYNSWGQGTQVTVSS | high polyreactivity
28 | QVQLVESGGGLVQAGGSLRLSCAASGRIFRNYAMGWYRQATGKERELVAAISTRSGSTYYADSVKGRSTISRDNAKNTVYLQMNSLKPEDTAVYYCNKVSVGRYYALYYWGQGTQVTVAS | high polyreactivity
29 | QVQLVESGGGLVQAGGSLRLSCAASGRIFRPNAMGWYRQAPGKEREFVAAITSSSGTTYYADSVKGRFTISRDNAKNTVYLQMNSLKPEDTAVYYCAAAQRSVRLKFGYWGQGTQVTVSS | high polyreactivity
30 | QVQLVESGGGLVQAGGSLRLSCAASGRIFRPNAMGWYRQAPGKERELVAAISYSGATTYYADSVKGRFTISRDNAKNTVYLQMNSLKPEDTAVYYCAADTPDAPDYSGFYYWGQGTKVTVSS | low polyreactivity
31 | QVQLVESGGGLVQAGGSLRLSCAASGRIFRPNAMGWYRQAPGKERELVATITSDGSTKYADSVKGRFTISRDNAKNTVYLQMNSLKPEDTAVYYCAVRWARRYRYYYWGQGTQVTVSS | high polyreactivity
32 | QVQLVESGGGLVQAGGSLRLSCAASGRIFRPYAMGWYRQAPGKERELVAGITSSGGSTYYADSVKGRFTISRDNAKNTVYLQMNSLKPEDTAVYYCAADYGWGSGFEYDYWGQGTQVTVSS | low polyreactivity
33 | QVQLVESGGGLVQAGGSLRLSCAASGRIFRRNAIGWYRQAPGKERELEAAISSGCGSKYYADSVKGRFTISRDNAKNTVYLQMNSLKPEDTAVYYCNTVFYYDDVSQAHDYWGQGTQVTVSS | high polyreactivity
34 | QVQLVESGGGLVQAGGSLRLSCAASGRIFRRNTKGWYRQAPGKERELVAAITSAGGSTYADSVKGRFTISRDNAKNTVYFQMNSLKPEDTAVYYCATYVAYHRGYRTYDHWAQGTQVTVSS | low polyreactivity
35 | QVQLVESGGGLVQAGGSLRLSCAASGRIFRRYAMGWYRQAPGKERELVAAISSGGSTNYADSVKGRFTLSRDNAKNTVYLQMNSLKPEDTAVYYCAARRTATTSRAYYYWGQGTQVTVSS | high polyreactivity
36 | QVQLVESGGGLVQAGGSLRLSCAASGRIFRRYAMGWYRQAPGKERELVAAITSGGSTYADSVKGRFTISRDNAKNTVYLQMNSLKPEDTAVYYCAADDAQGFDYWGQGTQVTVSS | high polyreactivity
37 | QVQLVESGGGLVQAGGSLRLSCAASGRIFRRYAMGWYRQAPGKERELVAALTRSGGSTYYADSVKGRFTISRDNAKNTVYLQMNSLKPEDTAVYYCYAPSSLGTDYDYWGQGTQVTVSS | high polyreactivity
38 | QVQLVESGGGLVQAGGSLRLSCAASGRIFRSNAMGWYRQAPGKERELVAAISGSGSTTNYADSVKGRFTISRDNAKNTVYLQMNSLKPEDTAVYYCATGKRGVSGRGFRYDYWGQGTQVTVSS | high polyreactivity
39 | QVQLVESGGGLVQAGGSLRLSCAASGRIFRSNVMGWYRQAPGKERELVAAITGRGSSTYYADSVKGRFTISRDNAKNTVYLQMNSLKPEDTAVYYCAKASRYWSLYYWGQGTQVTVSS | high polyreactivity
40 | QVQLVESGGGLVQAGGSLRLSCAASGRIFRSYALGWYRQAPGKERELVAAISSSDGSTYYADSVKGRFTISRDNAKNTVYLQMNSLKPEDTAVYYCNAEQVCYTYGRYPEWYLYGYWGQGTQVTVSS | low polyreactivity
41 | QVQLVESGGGLVQAGGSLRLSCAASGRIFRSYAMGWYRQAPGKERELVAAISGSGGSTYYADSVKGRFTISRDNAKNTVYLQMNSLKPEDTAVYYCNRARGASYHGQSDYWGQGTQVTVSS | high polyreactivity
42 | QVQLVESGGGLVQAGGSLRLSCAASGRIFRSYAMGWYRQAPGKERELVAAISSGVITYYADSVKGRFTISRDNEKNTVYLQMNSLKPEDTAVYYCNARWRFLYDYWGQGTQVTVSS | high polyreactivity
43 | QVQLVESGGGLVQAGGSLRLSCAASGRIFRVNAMGWYRQAPGKERELVAAISRRGGRTYYADSVKGRFTISRDNAKNTVYLQMNSMKPEDTAVYYCNADSVTSAGSLGRAEYGYWVQGTQVTVSS | high polyreactivity
